# Assay results: patent US20190112340A1
# Tests used:
# [1] = target: sc9-10 DS-Cav1 A149C, Y458C S46G-E92D-S215P-K465Q (A2); assay: BLI (Octet), F on Ni-NTA tips, Fab in solution
# [2] = target: RSV F sc9 DS-Cav1 (human RSV subtype A (strain A2)); assay: BLI (Octet), F on Ni-NTA tips, Fab in solution
# [3] = target: sc9-10 DS-Cav1 A149C, Y458C S46G-S215P-K465Q (A2); assay: BLI (Octet), F on Ni-NTA tips, Fab in solution
# [4] = target: RSV F DS-Cav1 (human RSV subtype A (strain A2)) (UniProt P03420); assay: BLI (Octet), F on Ni-NTA tips, Fab in solution
# [5] = target: RSV F sc9-10 DS-Cav1 (human RSV subtype A (strain A2)); assay: BLI (Octet), F on Ni-NTA tips, Fab in solution
# sc9-19 DS-Cav1 = assay: BLI (Octet), F on Ni-NTA tips, Fab in solution
# [6] = target: sc9-10 DS-Cav1 Q98C, Q361C S46G-E92D-L95M-S215P-I217P-I221M-R429K-K465Q (Long (VR26)); assay: BLI (Octet), F on Ni-NTA tips, Fab in solution
# [7] = target: RSV F sc9-9 DS-Cav1 (human RSV subtype A (strain A2)) (UniProt P03420); assay: BLI (Octet), F on Ni-NTA tips, Fab in solution
# [8] = target: sc9-10 DS-Cav1 A149C, Y458C S46G-N67I-E92D-S215P-K465Q (A2); assay: BLI (Octet), F on Ni-NTA tips, Fab in solution
# [9] = target: sc9-10 DS-Cav1 Q98C, Q361C L95M-I221M-R429K (B18537); assay: BLI (Octet), F on Ni-NTA tips, Fab in solution
# [10] = target: sc9-10 DS-Cav1 N183GC,N428C; assay: BLI (Octet), F on Ni-NTA tips, Fab in solution
# sc9-24 DS-Cav1 = assay: BLI (Octet), F on Ni-NTA tips, Fab in solution
# sc9 DS-Cav1-105Q = assay: BLI (Octet), F on Ni-NTA tips, Fab in solution
# sc8 DS-Cav1 = assay: BLI (Octet), F on Ni-NTA tips, Fab in solution
# [11] = target: sc9-10 DS-Cav1 N183GC, N428C S46G-N67I-E92D-S215P-K465Q (A2); assay: BLI (Octet), F on Ni-NTA tips, Fab in solution
# [12] = target: sc9-10 A DS-Cav1 A149C, Y458C; assay: BLI (Octet), F on Ni-NTA tips, Fab in solution
# [13] = target: bRSV F 391-2 DS-Cav1 (bovine RSV, strain 391-2) (UniProt P22167); assay: Fab binding to purified bRSV F trimer (Octet BLI as in Example 1)
# [14] = target: bRSV F strain 391-2 sc9-10, DS-Cav1, Q98C-Q361C (bovine RSV, strain 391-2); assay: as above
# [15] = target: bRSV F RB94 DS-Cav1 (bovine RSV, strain RB94) (UniProt P23728); assay: as above
# [16] = target: bRSV F ATue51908 DS-Cav1 (bovine RSV, strain ATue51908) (UniProt P22167); assay: as above
# [17] = target: bRSV F 391-2 sc9 DS-Cav1 Q98C Q361C (bovine RSV, strain 391-2) (UniProt P22167); assay: as above
# [18] = target: bRSV F ATue51908 sc9-10 DS-Cav1 A149C Y458C (bovine RSV, strain ATue51908 (NP_048055.1)); assay: as above
# sc10 DS-Cav1 [19] = assay: BLI (Octet), F on Ni-NTA tips, Fab in solution
# [20] = target: RSV F sc9 DS-Cav1 (human RSV subtype A (strain A2)); assay: D25 binding to heat-treated protein relative to the untreated protein (physical stability, FIG. 1E)
# sc10 DS-Cav1 [21] = assay: BLI (Octet), D25 Fab binding after/before stress
# [22] = target: sc9-10 DS-Cav1 A149C, Y458C S46G-E92D-S215P-K465Q (A2); assay: BLI (Octet), D25 Fab binding after/before stress
# [23] = target: RSV F sc9 DS-Cav1 (human RSV subtype A (strain A2)); assay: BLI (Octet), D25 Fab binding after/before stress
# [24] = target: sc9-10 DS-Cav1 A149C, Y458C S46G-S215P-K465Q (A2); assay: BLI (Octet), D25 Fab binding after/before stress
# [25] = target: RSV F DS-Cav1 (human RSV subtype A (strain A2)) (UniProt P03420); assay: BLI (Octet), D25 Fab binding after/before stress
# [26] = target: sc9-10 DS-Cav1 A149C, Y458C S46G-N67I-E92D-S215P-K465Q (A2); assay: BLI (Octet), D25 Fab binding after/before stress
# [27] = target: sc9-10 DS-Cav1 N183GC,N428C; assay: BLI (Octet), D25 Fab binding after/before stress
# [28] = target: sc9-10 DS-Cav1 N183GC, N428C S46G-N67I-E92D-S215P-K465Q (A2); assay: BLI (Octet), D25 Fab binding after/before stress
# [29] = target: sc9-10 A DS-Cav1 A149C, Y458C; assay: BLI (Octet), D25 Fab binding after/before stress
# sc11 DS-Cav1 = assay: BLI (Octet), F on Ni-NTA tips, Fab in solution
substance,measurement,setting,value
AM14 Fab,Kd,[1],15.9 nM
same,Kd,[2],33.1 nM
same,Kd,[3],35.1 nM
same,Kd,[4],3.3 nM
same,Kd,[5],6.6 nM
same,Kd,sc9-19 DS-Cav1,25.6 nM
same,Kd,[6],33.9 nM
same,Kd,[7],3.3 nM
same,Kd,[8],1 nM
same,Kd,[9],18.5 nM
same,Kd,[10],787 nM
same,Kd,sc9-24 DS-Cav1,25.1 nM
same,Kd,sc9 DS-Cav1-105Q,46.2 nM
same,Kd,sc8 DS-Cav1,1330 nM
same,Kd,[11],2210 nM
same,Kd,[12],6.3 nM
same,Kd,[13],1.8 nM
same,Kd,[14],12.8 nM
same,Kd,[15],4.9 nM
same,Kd,[16],4.8 nM
same,Kd,[17],8.6 nM
same,Kd,[18],12.8 nM
D25 Fab,Kd,sc10 DS-Cav1 [19],0.3 nM
same,Kd,[1],0.2 nM
same,Kd,[2],0.8 nM
same,Kd,[3],0.1 nM
same,Kd,[4],0.15 nM
same,Kd,[8],0.6 nM
same,Kd,[10],0.2 nM
same,Kd,[11],0.2 nM
same,Kd,[12],0.2 nM
same,percent still active (site Ø retained) after 1 h at 70 °C,[20],39%
same,"fractional D25 reactivity, 50 °C",sc10 DS-Cav1 [21],0.3
same,"fractional D25 reactivity, 70 °C",sc10 DS-Cav1 [21],0.3
same,"fractional D25 reactivity, freeze-thaw",sc10 DS-Cav1 [21],0.1
same,"fractional D25 reactivity, osmolality 10 mM",sc10 DS-Cav1 [21],0.1
same,"fractional D25 reactivity, osmolality 3000 mM",sc10 DS-Cav1 [21],0.1
same,"fractional D25 reactivity, pH 3.5",sc10 DS-Cav1 [21],0.2
same,"fractional D25 reactivity, pH 10.0",sc10 DS-Cav1 [21],0.2
same,"fractional D25 reactivity, 50 °C",[22],0.9
same,"fractional D25 reactivity, 70 °C",[22],0.8
same,"fractional D25 reactivity, freeze-thaw",[22],0.2
same,"fractional D25 reactivity, osmolality 10 mM",[22],0.5
same,"fractional D25 reactivity, osmolality 3000 mM",[22],0.6
same,"fractional D25 reactivity, pH 3.5",[22],3.8
same,"fractional D25 reactivity, pH 10.0",[22],0.6
same,"fractional D25 reactivity, 50 °C",[23],0.4
same,"fractional D25 reactivity, 70 °C",[23],0.4
same,"fractional D25 reactivity, freeze-thaw",[23],0.2
same,"fractional D25 reactivity, osmolality 10 mM",[23],0.1
same,"fractional D25 reactivity, osmolality 3000 mM",[23],0.1
same,"fractional D25 reactivity, pH 3.5",[23],0.2
same,"fractional D25 reactivity, pH 10.0",[23],0.1
same,"fractional D25 reactivity, 50 °C",[24],1
same,"fractional D25 reactivity, 70 °C",[24],0.9
same,"fractional D25 reactivity, freeze-thaw",[24],0.1
same,"fractional D25 reactivity, osmolality 10 mM",[24],0.7
same,"fractional D25 reactivity, osmolality 3000 mM",[24],0.8
same,"fractional D25 reactivity, pH 10.0",[24],0.4
same,"fractional D25 reactivity, 50 °C",[25],0.9
same,"fractional D25 reactivity, 70 °C",[25],0
same,"fractional D25 reactivity, freeze-thaw",[25],0.1
same,"fractional D25 reactivity, osmolality 10 mM",[25],0.9
same,"fractional D25 reactivity, osmolality 3000 mM",[25],1
same,"fractional D25 reactivity, pH 3.5",[25],0.8
same,"fractional D25 reactivity, pH 10.0",[25],0.5
same,"fractional D25 reactivity, 50 °C",[26],1
same,"fractional D25 reactivity, 70 °C",[26],0.9
same,"fractional D25 reactivity, freeze-thaw",[26],0.1
same,"fractional D25 reactivity, osmolality 10 mM",[26],0.8
same,"fractional D25 reactivity, osmolality 3000 mM",[26],0.7
same,"fractional D25 reactivity, pH 10.0",[26],0.7
same,"fractional D25 reactivity, 10 cycles freeze/thaw with 5% glycerol",[27],0.6
same,"fractional D25 reactivity, 10 cycles freeze/thaw with 10% glycerol",[27],0.7
same,"fractional D25 reactivity, 50 °C",[27],1
same,"fractional D25 reactivity, 70 °C",[27],0.5
same,"fractional D25 reactivity, freeze-thaw",[27],0.3
same,"fractional D25 reactivity, osmolality 10 mM",[27],0.9
same,"fractional D25 reactivity, osmolality 3000 mM",[27],0.4
same,"fractional D25 reactivity, pH 3.5",[27],2.6
same,"fractional D25 reactivity, pH 10.0",[27],0.7
same,"fractional D25 reactivity, 50 °C",[28],1
same,"fractional D25 reactivity, 70 °C",[28],0.9
same,"fractional D25 reactivity, freeze-thaw",[28],0.2
same,"fractional D25 reactivity, osmolality 10 mM",[28],0.8
same,"fractional D25 reactivity, osmolality 3000 mM",[28],0.7
same,"fractional D25 reactivity, pH 10.0",[28],0.5
same,"fractional D25 reactivity, 10 cycles freeze/thaw with 5% glycerol",[29],0.6
same,"fractional D25 reactivity, 10 cycles freeze/thaw with 10% glycerol",[29],0.9
same,"fractional D25 reactivity, 50 °C",[29],1
same,"fractional D25 reactivity, 70 °C",[29],0.8
same,"fractional D25 reactivity, freeze-thaw",[29],0.3
same,"fractional D25 reactivity, osmolality 10 mM",[29],0.7
same,"fractional D25 reactivity, osmolality 3000 mM",[29],0.6
same,"fractional D25 reactivity, pH 3.5",[29],2.3
same,"fractional D25 reactivity, pH 10.0",[29],0.7
MPE8 Fab,Kd,sc10 DS-Cav1 [19],0.8 nM
same,Kd,[1],0.2 nM
same,Kd,[2],0.8 nM
same,Kd,[3],0.4 nM
same,Kd,[4],0.5 nM
same,Kd,[5],0.8 nM
same,Kd,sc9-19 DS-Cav1,1 nM
same,Kd,[6],0.2 nM
same,Kd,sc11 DS-Cav1,1.6 nM
same,Kd,[7],< 0.01 nM
same,Kd,[8],0.2 nM
same,Kd,[9],0.2 nM
same,Kd,[10],0.1 nM
same,Kd,sc9-24 DS-Cav1,0.8 nM
same,Kd,sc9 DS-Cav1-105Q,0.8 nM
same,Kd,sc8 DS-Cav1,0.5 nM
same,Kd,[11],0.2 nM
same,Kd,[12],0.1 nM
same,Kd,[13],0.2 nM
same,Kd,[14],0.8 nM
same,Kd,[15],0.2 nM
same,Kd,[16],0.2 nM
same,Kd,[17],0.4 nM
same,Kd,[18],0.5 nM
